# Assay: soluble fraction after stress (log2 fold change); higher = more stays soluble; pooled small domains, quantitative proteomics
# Details: stress: pH 4
# In short: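 Values are on a log2 scale, where higher means more of the domain stayed soluble after pH 4 stress. They are fold changes in the soluble amount of each domain from pooled custom libraries, measured by high-throughput quantitative proteomics. The fold change is taken to reflect aggregation propensity.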
row,Sequence,soluble fraction (log2)
1,HMKGVPGIGDYVKLSGGSTVGKVLSISGKKAEVAFGLLRTTTELSKLEKVRKPKELLQSGVSS,≥ 0.43
2,HMSSSYTEMQLERFKELLNKETLLSSEKNELKNLISDFDKISEIVSPLVVGAYLQLKNEHIETINSLG,-0.846
3,HMGPEAFPVPYVVDIELDRAIYVIEQSGFIVGQKLEANDNNVPRGFVISQNPPAGTKLGPESIVDLVVSS,-0.281
4,HMQLTQEAIENLFKITTAKKFREELEKLVVTDSEKKAFAYFTVYHPKLKELPFAILKSVENYTGISI,-0.319
5,HMIEDMTINIEERLSLNGDIKKSEYILQYIKPDFIRKVILSPELNKGEIYIYDSKKKVMYLPLFDQVSEEI,-1.09
6,HMKEETEMVTIPDVTGKPLTEAANLLREAKLDYLAESTGTSVTKQMPLPGAEVMVNTTVLLYTG,0.241
7,HMIHDSAESVVFPFGKYKGYTLAHVIREHPHYTYWIRDNADFSPLWREAVSLALQNRDIGHLNLPHVK,-0.606
8,HMRKKDGEAYVLPRPLKKGDSVLIYDIDKKGTVLQPPEKGGKTALIQAGIIQTRVPVSNLRLLE,-0.0646
9,HMIGERIKRARAAAGLSMQALGKQVGISANMVKKYEHDQSMPSSGVLLKLATALSVRTEYFFRPA,-0.0616
10,HMLESPVEAIIRQIKQLITNGKLKPGDRLPAERLLAENFGVGRGYVREAIMKLEFFGLLKTSPQSGTYVAG,-0.257
11,HMKTERTVRVQDQHLHYTLEEKPIKNVNLRIRPDGSVYVSAPFGTSRTLIDDFVASKSKQILAIQQAQSAM,0.22
12,HMGIVVDGTMTLEGVAERYGMSVGELARVIGVPPEYSNERLGRLRKSYEFEMDDIRIYIIQKQ,-1.31
13,HMIPDGKWKEDPISDGQKNFINSLIEQAIDAGQDELGAEAKKYLASGEATKGNASAMIDKLKSAL,0.398
14,HMDRSKREKEQQELMLKVQQIFDDNQQRFGAEKIRTVLAQNGVRVSVKRVSAIMQELNLRSIR,0.169
15,HMTETIPVSERLFRYLFEEKGKRVQKIQQTSHARVRMERSPYSVVVSGTKDAVEAAMESLKATEKELLEA,0.321
16,HMDGLPYPEAAEEPIAQVARNLGMDATRVSIALQEAKLIFRNLDETLAEIAANNGTTPQVVYDAIRHLEPP,-0.372
17,HMKDPSFELMSVAESFYRSGNVDHAVYALEKYLEVYADGDYTDRAHDLLSQARKGLTYPHGYPPLQI,-1.33
18,HMTEPKILTAEESQRLDLILVQQWPELGRRALRELVQQGGVRINGELALKAGQYVQAGERVEVAVP,-0.879
19,HMNSNISYSEFLSQVEKGTINSVEITGNSIKGIYADGGEFITFSPGDPGLIDKLQRSDIEILATPPA,-0.593
20,HMTDEEFSRIVKYTAVRYGINLYHKKVMVEGRLSNYLAANGFKSYTEYMDRVEADYTGQEAQNLINILTT,-1.3
21,HMEDTVNVPIQINGKLRHVIQVQIGTSEEEIQKIALSEEQVKKFTDGHEILKVMVPKGKLVSIVI,-0.126
22,HMARPLLSPREQDVLALIARGFSYSEVARLQAVTVHTIRTHIRNLYAKLSVHSKTEAVFEATRMGLLP,-0.569
23,HMPATTMMVVVDRDLPYGHVLTDRDVRLETRRATSPGASVAFTSIDPVLGQSLTRPLGAGTPVGRADLR,-0.151
24,HMKDYKTIFQELIQKKHKTSPIYKSYEYNDMFKAEVYVNDKSFADGIGKSKKEAETDAAKKALEKIEMA,0.0809
25,HMSINQTIEGKKQGYWIIYGNMRNLQEYLSNEVIEEGQFKNSRKEGVWRKYFPGGQMKSEITYINGRP,-0.93

row,Sequence,soluble fraction (log2)
1,HMKSIEVPNLINMTLRKAKIELIDNEFNLDTVIYEYNPNIREGRVSLQIPESGTILKSGSNISIHISKGIP,-0.32
2,HMENQFNDWSLTPSEKEVALFMLKGLSTQEIAAARNTKEKTVRQQASAVYAKSQLDGRYALAAWFFEDI,-1.04
3,HMRVQELARDLGVEADTLIALLRQMGIPVTGARSAINDAQQAKVLAKIERERRAGHSDPAKAIQAVLEEAS,0.0597
4,HMEVENAQLLARLTPQEHRVFERVVAGLSNREIGSEMDISIKTVEVHRARVMRKLEANSVAELVRFHIHN,-0.811
5,HMEADERRNEILDAAETLITEKGYSKTTIIDILNQVGIAKGTFYYYFKSKEEVMDAIIERFI,-1.33
6,HMRTLRENIMDYFKQQTIIQKSSVILLPMSKRQLADYFGVQRPSLFRELKKLKEEGIIEINNRTITIK,-0.0293
7,HMKPFSLESYKAFVVKRLGLFPETSSAQMHDWLKEEYPDFPLITPRTVYNFVMKIRQDYGIAKV,-0.732
8,HMKYYIYQGLGDSGELTKIAEVTDVKTYTATGLEANTKYRFAVSAYNGLRESSKSNIITVTT,-0.325
9,HMDSIDIDAETKSLGPNAPQIIKGIKEWGQGLVAKGVWSDQDFEEFKVFAATANGINALNKVRKFY,-0.192
10,HMNGLNISYRMDGENVVETIVFPDATMIRTIAPNGVMTIKTIEDGSVSTSELKADYKLYKKIYESQY,-0.401
11,HMAKRDEIEAELPRFVATITQELAASRDVLSMIEHYKQNSGPVFSAELDVLTADMRSGSYEAALTRFEARF,-0.0581
12,HMVLFDLSEREKEVLKLLADGNSYKMIASRLEITYFTVNAHLKKIYEKLQVHSASEAVSVALRNSL,-1.36
13,HMTETTTVPKLKGLTKDEAEDAAKSSKIKLEFIDEISKTVEAGVIIKQEKDEGETVNAGDTVKVYVSIGT,-0.0593
14,HMSHQIIIVAVELDPSTERIVYYLSKNGISINVLFFKVFQHGDEQFLSRVWLIDPSETQTNAALA,-0.424
15,HMSIGKEATPDDIVPNIRVYHATFGYGNVIKTDGVSHDKKAVVNFDSVGEKTLLLKFAKLILPY,-0.754
16,HMEMTSREIIKRLEEDGWYHVKTTGDHYQMKHPTKPGKVTIVHPAKDLSIGTLRSIEKQSGVRL,≥ 0.43
17,HMDRVMPVPEALIGMRFDIAVSRMLGVSRSQAAAYIDRGQVSIAGRGSQRSAQKSEKLVQGDSIEVAIA,0.186
18,HMTSMNNTEELIDMANKIIDNNPNMVLKYKEGRNVLDFFIGQVMKETKGRANPSATSKIFKDLLEK,0.171
19,HMENPLETYYSQWVSAIKREHPEASFVKDTDGKYYVEGLTKNRLAVIYENPHLVRLVNATTNLHVE,0.14
20,HMYSKQRELIMEAVFKNRVHPTAEYVYKLLKKDHPELSLGTVYRNLNYWAENNMLKKINVPGGSDRFDGT,0.236
21,HMDSVSAVRTTHLNSYVLLLEKDGMAAATISRYIASMKGFFEYLFREHMIEEDPAFTLKPPKV,0.0461
22,HMEYQTVEKSEAEQIIQELEKAERLALKVYSKNDIITGISVSDGKSYYFSAELVPMLKNIIENPEIKIL,-1.14
23,HMENVVESIYNKMVESITNGQWAAGSKIPTENELAKTYQVSRSSVRQAISRLKALGLLESRQGSGTVIKK,0.178
24,HMAVNVNGIHLSSQQHEALVSIWRTGRMPEPHAGQKPWLWIQALRRRGLVSGNALRLTDKGRHIVQLLQ,0.226
25,HMYNNDEIEKIQTMYNAIYQLNDIEKALIMLFLEDKSYKEIAEIMGISEGNARIKMMRTKDKLKNLISKN,-0.608

row,Sequence,soluble fraction (log2)
1,HMKVTTGIDGLIGEEGVALSDFSGKGKIMVHGEIWNAEFSGEVKKGEVLLVEKANGMTLITRKKN,-0.401
2,HMSKSVEQRRQQIVAWVKEHGQSQVEDLAVRFATSEVTIRKDLAALSQQGLLIRQFGGAVPVPA,0.119
3,HMYKDVVVPNTVGDSEEKAYQTLSALGLVVNITYDEDASKSDRVVTSQNPTNKTIKEGESVNIVVNKQP,-0.242
4,HMFSDDEINRLKARDSILVNLRDSEKQVWELYTDGKTVQNIANQLNKHKQSISATIINIKNKISRKQNMLK,-0.0225
5,HMEYKNYYDSPVGRLELLSDGVSLTAVLFENQQGDGTREENTSLAIFKEATQWLDAYFKGDNPEITIPL,0.33
6,HMSNIIGNTAYSAIPDKQYFRLKSETAEKVANYLTENNIPFSGRINGDKTTLTIGQKNVDDYKAAVATVTG,0.304
7,HMYNKKAYVNTNSDFLNVRSEASTESSVVDKLARGTEVNIVGNIQNGFYPIVLNEKNAWVSSDWISFEKPT,≥ 0.43
8,HMLNAPFGFRIEDDTLIPIPEEAKVVRQIFRYYLQGMGFGKIAQELNGQDVPGKPWGKERIKYILSNEKYI,-0.0934
9,HMLENIVFTNKFKNKRLDVLLVDMKLVSSRQKAVSLIMRGNVFVEEERADKPGKIIKLNQTISLKK,≥ 0.43
10,HMSTFAQNLRALMEKRGVSQNELARSAGLTQSAINKILTGKTKQPGIDTTEAIARVLNVSVAQLIYT,0.22
11,HMQQLDDDTVAYVADNGIAVKSKNGKELSVDTSGLSYDIIMDMFRNLPRNGDFFSSKYWSDNIQKAQAR,-1.34
12,HMENPVPVIITDQNFQPLLWKNVGVPTDTIFHELSPENQKKLENLMKTMVQMPLTDDGRISGYAYYSK,0.149
13,HMISADSSKVDTLVQVYSNMKPIQAAQVFEKMDEDLVIEILSRMKKKNAADILNLIKTEKAQVFAEKYA,-0.0774
14,HMGVHSVVPDIKNKHYGEAKAILAANGLSIEISDSIYDRSVAPGTVVESWPKAGAIVKGDRAVFVTLTAF,-1.17
15,HMTKLLSALQADKFAKKLANDTNFGSNFARMGESAMDFTNRLVEELQRDEGKVANYMPYLTKLGF,-0.305
16,HMKKKLPRYLQEQKYGNGMVFYRYNPTARYIDEGIVTRTNLGSDLSIAKKKANEFNKLIDAFLQQQSE,-0.0245
17,HMEDKKQVLYELITDKSYRPLRFKELAVLLMVPKALRGELKQTLDELIKEGKITVDSSSRYRAA,0.276
18,HMKEQLITVYVSGAVARPGLYELPAGIRAQEAVEAAGGFTEAANHEKVNLAKKLKDGSQVNVPALK,-0.107
19,HMNSQSGKGGVGYILETKYGLNLPPKMREAMGYAAKGVSDHLHKELHPDEIFDLFKKTFENVGQPYS,0.197
20,HMSISSSEAARSAVASSGGTVLGVSKASHGGYKAWAVRIQRADGSVVTGYVDRASGTVYDWVVNQAA,0.379
21,HMAIEMSTITKRVTSTGEIRYRALLQIRREDVNYTESRTFSKKSLAEAWLKKREVELEANPELLHQ,≥ 0.43
22,HMNINLDINTYTVKELEKLLKLEVPYSDNNVFEKKNLMVKMIQTSTIAETKKEELYIFLDNIYNRLTNNLE,-0.942
23,HMDAEWRTLTLAPEQHQQRLDRALADSLPEFSRSYVQQLIDTGMVRVNGVLAAKSAQRVKALDQVQVELR,-0.186
24,HMREPQMVTVNGDKVTHGHAYRSNVNPEDWYFTARINGQQLKPQKMEPADVAAYDKKEIGVPELMQR,-0.0539
25,HMSDIISEIESQVMFKLATYEITNATEKMIEALINSEINDRRTLGFPIPNEQGRIFLVRSIQNKLAV,-1.54

# Source: the domain aggregation screens of Martell et al. (2025)
